Reference: PMC3594298

Target: 6Xhis-tagged AldE (class 3 aldehyde dehydrogenase encoded by synpcc7942_0489) from S. elongatus PCC7942 (S. elongatus PCC7942)
Experiment: SEC; HiLoad 16/60 SuperDex200 gel filtration column in 150 mM NaCl/50 mM Tris, 7.5/1 mM EDTA; elution compared with MW standards

stoichiometry N: 2
Substance: 6Xhis-tagged AldE (class 3 aldehyde dehydrogenase encoded by synpcc7942_0489) from S. elongatus PCC7942 (enzyme)
